Data as given in patent US20160272683A1 (Novo Nordisk, published 2016).
Numbered stars: 1 amine (or outer) side, 2 acyl side, 3 side chain; on linkers, the order of the positions; unused ones are H or OH. * marks the point of attachment. C20 diacid = O=C(O)CCCCCCCCCCCCCCCCCCC(=O)*; C18 diacid = O=C(O)CCCCCCCCCCCCCCCCC(=O)*; γGlu = O=C(O)[C@H](CCC(=O)[*:2])N[*:1]

What was measured:
[1] = target: T1, human calcitonin receptor (human, UniProt P30988 25-474); assay: cell-based or functional assay
T1 sequence (looked up): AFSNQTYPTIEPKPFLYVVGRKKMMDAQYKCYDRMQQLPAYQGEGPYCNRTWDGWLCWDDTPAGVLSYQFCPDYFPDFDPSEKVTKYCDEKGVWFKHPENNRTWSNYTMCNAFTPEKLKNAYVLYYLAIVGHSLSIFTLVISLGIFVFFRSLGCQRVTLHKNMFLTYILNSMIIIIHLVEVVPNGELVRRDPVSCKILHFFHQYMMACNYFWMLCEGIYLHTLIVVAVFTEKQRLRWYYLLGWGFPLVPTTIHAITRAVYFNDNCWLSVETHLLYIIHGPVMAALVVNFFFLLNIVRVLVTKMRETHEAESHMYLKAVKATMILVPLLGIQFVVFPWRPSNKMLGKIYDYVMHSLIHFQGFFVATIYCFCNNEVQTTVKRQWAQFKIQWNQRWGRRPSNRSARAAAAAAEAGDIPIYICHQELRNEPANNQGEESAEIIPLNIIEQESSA

[2] = target: T2, human amylin 3(a) receptor (human calcitonin receptor co-expressed with RAMP-3) (human, UniProt P30988 25-474; O60896 24-148, limits assumed); assay: cell-based or functional assay
T2 sequence (looked up) 1: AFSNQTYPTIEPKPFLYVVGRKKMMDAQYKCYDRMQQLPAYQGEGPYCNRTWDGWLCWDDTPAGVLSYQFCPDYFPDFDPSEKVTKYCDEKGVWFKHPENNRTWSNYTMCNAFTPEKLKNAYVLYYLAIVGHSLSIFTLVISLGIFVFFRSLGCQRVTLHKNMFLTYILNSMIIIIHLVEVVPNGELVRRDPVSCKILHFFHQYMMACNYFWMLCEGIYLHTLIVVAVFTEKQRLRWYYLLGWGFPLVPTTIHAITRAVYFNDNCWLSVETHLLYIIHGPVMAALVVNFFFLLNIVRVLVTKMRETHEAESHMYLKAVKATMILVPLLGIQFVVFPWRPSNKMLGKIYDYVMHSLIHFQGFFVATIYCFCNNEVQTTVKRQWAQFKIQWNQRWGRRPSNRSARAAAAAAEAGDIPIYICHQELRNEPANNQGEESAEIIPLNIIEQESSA
T2 sequence (looked up) 2: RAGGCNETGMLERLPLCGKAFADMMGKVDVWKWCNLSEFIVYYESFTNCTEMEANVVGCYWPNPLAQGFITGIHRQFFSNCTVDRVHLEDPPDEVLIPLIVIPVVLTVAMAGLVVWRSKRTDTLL

| Binder | hCTR funct. EC50 (pM) [1] | hAmylin-R funct. EC50 (pM) [2] |
| --- | --- | --- |
| {C20 diacid-γGlu}-LSGLSTAVLGRLSQELHELQTYPRTETGSQTY-NH2 (SMILES CC(C)C[C@H](NC(=O)CC[C@H](NC(=O)CCCCCCCCCCCCCCCCCCC(=O)O)C(=O)O)C(=O)N[C@@H](CO)C(=O)NCC(=O)N[C@@H](CC(C)C)C(=O)N[C@@H](CO)C(=O)N[C@H](C(=O)N[C@@H](C)C(=O)N[C@H](C(=O)N[C@@H](CC(C)C)C(=O)NCC(=O)N[C@@H](CCCNC(=N)N)C(=O)N[C@@H](CC(C)C)C(=O)N[C@@H](CO)C(=O)N[C@@H](CCC(N)=O)C(=O)N[C@@H](CCC(=O)O)C(=O)N[C@@H](CC(C)C)C(=O)N[C@@H](Cc1c[nH]cn1)C(=O)N[C@@H](CCC(=O)O)C(=O)N[C@@H](CC(C)C)C(=O)N[C@@H](CCC(N)=O)C(=O)N[C@H](C(=O)N[C@@H](Cc1ccc(O)cc1)C(=O)N1CCC[C@H]1C(=O)N[C@@H](CCCNC(=N)N)C(=O)N[C@H](C(=O)N[C@@H](CCC(=O)O)C(=O)N[C@H](C(=O)NCC(=O)N[C@@H](CO)C(=O)N[C@@H](CCC(N)=O)C(=O)N[C@H](C(=O)N[C@@H](Cc1ccc(O)cc1)C(N)=O)[C@@H](C)O)[C@@H](C)O)[C@@H](C)O)[C@@H](C)O)C(C)C)[C@@H](C)O) [[N-terminal(C20 diacid-gGlu), des1, 2L, 4G, 9V, 15Q, 21Q, 23Y, 30S, 31Q, 32T, 33Y]mimylin] | 31 pM | 31 pM |
| {C20 diacid-γGlu}-ASGLSTATLGRLSQELHELQTYPPTETGSGTY-NH2 (SMILES CC(C)C[C@H](NC(=O)CNC(=O)[C@H](CO)NC(=O)[C@H](C)NC(=O)CC[C@H](NC(=O)CCCCCCCCCCCCCCCCCCC(=O)O)C(=O)O)C(=O)N[C@@H](CO)C(=O)N[C@H](C(=O)N[C@@H](C)C(=O)N[C@H](C(=O)N[C@@H](CC(C)C)C(=O)NCC(=O)N[C@@H](CCCNC(=N)N)C(=O)N[C@@H](CC(C)C)C(=O)N[C@@H](CO)C(=O)N[C@@H](CCC(N)=O)C(=O)N[C@@H](CCC(=O)O)C(=O)N[C@@H](CC(C)C)C(=O)N[C@@H](Cc1c[nH]cn1)C(=O)N[C@@H](CCC(=O)O)C(=O)N[C@@H](CC(C)C)C(=O)N[C@@H](CCC(N)=O)C(=O)N[C@H](C(=O)N[C@@H](Cc1ccc(O)cc1)C(=O)N1CCC[C@H]1C(=O)N1CCC[C@H]1C(=O)N[C@H](C(=O)N[C@@H](CCC(=O)O)C(=O)N[C@H](C(=O)NCC(=O)N[C@@H](CO)C(=O)NCC(=O)N[C@H](C(=O)N[C@@H](Cc1ccc(O)cc1)C(N)=O)[C@@H](C)O)[C@@H](C)O)[C@@H](C)O)[C@@H](C)O)[C@@H](C)O)[C@@H](C)O) [[N-terminal(C20 diacid-gGlu), des1, 4G, 9T, 15Q, 21Q, 23Y, 25P, 30S, 31G, 32T, 33Y]mimylin] | 19 pM | 23 pM |
| {C20 diacid-γGlu}-ELSGLSTLVLGRLSQELHELQTYPRTGTGSGTY-NH2 (SMILES CC(C)C[C@H](NC(=O)CNC(=O)[C@H](CO)NC(=O)[C@H](CC(C)C)NC(=O)[C@H](CCC(=O)O)NC(=O)CC[C@H](NC(=O)CCCCCCCCCCCCCCCCCCC(=O)O)C(=O)O)C(=O)N[C@@H](CO)C(=O)N[C@H](C(=O)N[C@@H](CC(C)C)C(=O)N[C@H](C(=O)N[C@@H](CC(C)C)C(=O)NCC(=O)N[C@@H](CCCNC(=N)N)C(=O)N[C@@H](CC(C)C)C(=O)N[C@@H](CO)C(=O)N[C@@H](CCC(N)=O)C(=O)N[C@@H](CCC(=O)O)C(=O)N[C@@H](CC(C)C)C(=O)N[C@@H](Cc1c[nH]cn1)C(=O)N[C@@H](CCC(=O)O)C(=O)N[C@@H](CC(C)C)C(=O)N[C@@H](CCC(N)=O)C(=O)N[C@H](C(=O)N[C@@H](Cc1ccc(O)cc1)C(=O)N1CCC[C@H]1C(=O)N[C@@H](CCCNC(=N)N)C(=O)N[C@H](C(=O)NCC(=O)N[C@H](C(=O)NCC(=O)N[C@@H](CO)C(=O)NCC(=O)N[C@H](C(=O)N[C@@H](Cc1ccc(O)cc1)C(N)=O)[C@@H](C)O)[C@@H](C)O)[C@@H](C)O)[C@@H](C)O)C(C)C)[C@@H](C)O) [[N-terminal(C20 diacid-gGlu), 2L, 4G, 8L, 9V, 15Q, 21Q, 23Y, 27G, 30S, 31G, 32T, 33Y]mimylin] | 25 pM | 25 pM |
| {C20 diacid-γGlu}-ASGLSTAVLGRLSQELHELQTLQTYPRTETGSQTY-NH2 (SMILES CC(C)C[C@H](NC(=O)CNC(=O)[C@H](CO)NC(=O)[C@H](C)NC(=O)CC[C@H](NC(=O)CCCCCCCCCCCCCCCCCCC(=O)O)C(=O)O)C(=O)N[C@@H](CO)C(=O)N[C@H](C(=O)N[C@@H](C)C(=O)N[C@H](C(=O)N[C@@H](CC(C)C)C(=O)NCC(=O)N[C@@H](CCCNC(=N)N)C(=O)N[C@@H](CC(C)C)C(=O)N[C@@H](CO)C(=O)N[C@@H](CCC(N)=O)C(=O)N[C@@H](CCC(=O)O)C(=O)N[C@@H](CC(C)C)C(=O)N[C@@H](Cc1c[nH]cn1)C(=O)N[C@@H](CCC(=O)O)C(=O)N[C@@H](CC(C)C)C(=O)N[C@@H](CCC(N)=O)C(=O)N[C@H](C(=O)N[C@@H](CC(C)C)C(=O)N[C@@H](CCC(N)=O)C(=O)N[C@H](C(=O)N[C@@H](Cc1ccc(O)cc1)C(=O)N1CCC[C@H]1C(=O)N[C@@H](CCCNC(=N)N)C(=O)N[C@H](C(=O)N[C@@H](CCC(=O)O)C(=O)N[C@H](C(=O)NCC(=O)N[C@@H](CO)C(=O)N[C@@H](CCC(N)=O)C(=O)N[C@H](C(=O)N[C@@H](Cc1ccc(O)cc1)C(N)=O)[C@@H](C)O)[C@@H](C)O)[C@@H](C)O)[C@@H](C)O)[C@@H](C)O)C(C)C)[C@@H](C)O) [[N-terminal(C20 diacid-gGlu), des1, 4G, 9V, 15Q, 21Q, 23aQ, 23bT, 23cY, 30S, 31Q, 32T, 33Y]mimylin] | 45 pM | 54 pM |
| {C18 diacid}-EASELSTAALGRLSAELHEIATLPRTETGPESP-NH2 (SMILES CC[C@H](C)[C@H](NC(=O)[C@H](CCC(=O)O)NC(=O)[C@H](Cc1c[nH]cn1)NC(=O)[C@H](CC(C)C)NC(=O)[C@H](CCC(=O)O)NC(=O)[C@H](C)NC(=O)[C@H](CO)NC(=O)[C@H](CC(C)C)NC(=O)[C@H](CCCNC(=N)N)NC(=O)CNC(=O)[C@H](CC(C)C)NC(=O)[C@H](C)NC(=O)[C@H](C)NC(=O)[C@@H](NC(=O)[C@H](CO)NC(=O)[C@H](CC(C)C)NC(=O)[C@H](CCC(=O)O)NC(=O)[C@H](CO)NC(=O)[C@H](C)NC(=O)[C@H](CCC(=O)O)NC(=O)CCCCCCCCCCCCCCCCC(=O)O)[C@@H](C)O)C(=O)N[C@@H](C)C(=O)N[C@H](C(=O)N[C@@H](CC(C)C)C(=O)N1CCC[C@H]1C(=O)N[C@@H](CCCNC(=N)N)C(=O)N[C@H](C(=O)N[C@@H](CCC(=O)O)C(=O)N[C@H](C(=O)NCC(=O)N1CCC[C@H]1C(=O)N[C@@H](CCC(=O)O)C(=O)N[C@@H](CO)C(=O)N1CCC[C@H]1C(N)=O)[C@@H](C)O)[C@@H](C)O)[C@@H](C)O) [[N-terminal(C18 diacid), 20I]mimylin] | 5 pM | 6 pM |
